Results taken from a protein production outcome set (Wang et al. 2014).

Assay: label from the status in PepcDB records

Sequence	protein production
MQAFFANPAVSWTLLTTGGILLVVIWVLLSLAFLLLADRKIWAGVQMRKGPNVVGPFGLLQSFADFFKFVLKEIVIPAGADKVVFILAPLISLILAFVGWAVVPFAPGWVVSNLNVGILYLLAMSSLGVYGIIMGGWASNSKYPFLGALRSAAQMVSYEVSIGLIIITVILLAGSMNLSTIVEKQSGWIWNWNVFGGGLNNLVLLPVMVVAMGMFYISALAETNRPPFDLPEAESELVAGYQVEYSSTPYLLFMVAEYSNIVLMCAMISVLFFGGWNPGFPTDFLSSWHPFAANLFLALVFYAKICFWFFMFAMAKAIVPRYRYDQLMRLGWKVFLPTSLVLVAAVAAWRVFGPAA	failed
MQAMTERLEAMLAQGTDNMLLRFTLGKTYAEHEQFDAALPHLRAALDFDPTYSVAWKWLGKTLQGQGDRAGARQAWESGLAAAQSRGDQQVVKELQVFLRRLAREDAQHGG	failed
MQAVHGRSRKPADPAYQAGLAEELRQSYGRAGLIELYGRFATGDGVVDSLMRKAIWQAITRRCGEGLQVASGAGFKHPETFEIGDGVFIGAQAYIQGRYDGTCVIGDNVWIGPMAYFDARDLVIEDSVGWGPGAKVLGSTHTALPIDVPIIRTDLEIRPVRICAEADIGTNATILPGVTIGKGAIVGAGAVVVSDVEPFSVAAGVPAKFIRWRSENDPMTNMSREGRS	failed
MQCNVCEFGCEIDEYSRGRCRTYVCTGDTIIQDPDMGYLGAYPVSIETIPLLHYYPSGKFLQVFGTGCNFQCSGCVARLLASGKSLSSTTLTPSQVVEKALQQDCLGVVSTLNEPAANYYLFRDLAVQAKEKGLLVGCSTNCYFTEETLNKLGQLVDFMNVGIKGYSDRSYISCGVPSSAPVFRNISLLFDMGVHVETSVVYSRGNEADVIKVAEAVSDISPTIPVQVMRFIPFGDAPIELEPSVGEAESLCADLRKYVDYVYLFNSPGTELLNTYCPECGSLLAEREFYGPMGSRPVRPWITYSCDCGKTVPVKGTTAVERFNEEGFMGGYRISRAFGMVHGVLTCLGILDDSRLIDVWREISDSGTLMKVHHMIQQPYAYLDFVRLIAERANMPEKGEELISFIHTRLELVKSLAAENSGHKVYYCMGSPLFALNAGRMENNLVAFSGGLSINKQLQKEGKPGINVSPSFINENNPDTIFISGFLSRPLDEFYTLCRQYGIETDAVKQQRVYEVPPSWDFGNPRWILGLMYIADKLYPGNSGIDLEKEADEFYRQFYGMPYLEHHHHHH	not failed
MQDELVILSSIASIMVAIIVLILFYIEKIRTYVGVFFVYFSLTMMIAMFVGASIYLLYPSRVSLAIAFGINTFIMIPLIAYFLLKIAKLANTPFRGERTHVVIFSILLVLNEILMGTTFGIAQFGFSRFSNLYYSLYFSINSYWFFYPMMAEMLALYLLHYLKGSINRELFPLIGLATFPPTAFDYQEWFYSALIFSLAFSILGSILSKRLWRYVYLMLILSELILLINAIPYDIAIAISMILYYYQSLLPLRR	failed
MQDFRFVAAAIVFIFTLILVTVRPWKIDIGYGALIGAFVSIILGISTPADVIKVWNIIWNPTFTFVAIIAMSLVLDYAGFFEYYAIRISKFAGGNGIKLFVFIVILGSLTAAFFANDGAVLVLTPIVLSIMDMTGIGKKGAVAYIMAIGFISDSSSLPFVISNLVNIIGSGYFGISFASYAKVMVIPDIISVVSSLGLLLLYYRKDIPRIYQVESLPNPKNVIKDPLIFKLAFPFMAIVVLAYFLTSFDLVPVSFVAVPAATILIVVARYNHRINTRSIIAEAPWQVVVFSLGMYIVVYGFGDNGLTSVLVHVTKSILLLGNPLSTVLAGLLFGAMAGSMNNLPSVMMGALTISHLNQNSFLIYANVIGNDIGPKFTPIGSLATLLWIYTLQRKHGVQITPIYYMKVGFIIAFPVLVLTLLSLYATIYFGL	failed
MQDGFLTVSIIDATNNRPIQNAVVNIYSMSNGSQSSSTLYQNLRSNESGQVTGLVLPAPDVDYSLQPSDVRPYSQYIVEAIADGYETVVIEGTQLLATIEARQGVPMSPRTRSKRSFSRQSELIFDIGEHTLYGTYPPKIPESNLKPLPPPTGFVVLDNPVVPEFIVVHDGLPEDSSAPNYWIPFKEYIKNIASSEIYSTWPEQTIYANVIAIISFTLNRVFTEWYRNKGYNFTITSTTAYDHKFINNRNLFEPINVVVDAIFNTFIKRPPTSRQPLLAQYCDGQKSQCPDQMTQWGSKDLGDQGYDYESILRYFYGDEIVFERAPIVSGVPVSFPGTTLQVGSSGQYVRTIQNQLNAISNSYPAVPKVIEDGIYGTDTENAVKIFQGIFGLPQSGVVDFKTWYEISRVYVATTRIASLNPLILEHHHHHH	not failed
MQDKNFDKLAQKFAKNIYGTPKGEIRAAVLWRDLAPALAQFGDKKLRILDAGGGFGYFSQKLARLGHEVVLCDISAEMLAQAKEQIDASDTPLAIRLVHAPIQALSITEHGMFDLILCHAVVEWLADAKTTMEGLLTMLKPNGLFSLMFYNKEAMRFHALVSGNFDYVAADLKVKKKVRLTPTHPLYIHEVKLWFAQWQMALLKESGVRVIHDYLKKQQAADFDYQKLLSMELEYSQREPYISLGRYVHFLGQSTATHSELEHHHHHH	not failed
MQDNNARFPTIAKVLILRQFLWGAAFYGAFVLLTKFFLDDLNYSEADTIMMMGAFGAVGPVFSAVGGFLADKFIGAFRAVYIGYATYLAGFLLLGIGASQLNVPMSILAIALIGFARGLSATCPTVLFGNSYSETNREAFQQGLTVNYSINNLGSFSAKYLFPFLIAYLAYQGVFFVSAILMALNLLMFYKFRKELVSVGNDLDKTPLPLKTWVMFFAGSAAMLGLIFWIFSNLETGKYILYTLGFGAIGYFIYEITQATRAYQYKMVAVLITVCILIVFYFFYGQMFTSMNMYAINLMDDTLLGFIPIHPESNMAFNPLWCFVLGGPMIQLYAWLDRKGYSPTIPTKIAGAFMLSTIAFGLLGLSAGSIGENGKISADWILLVHFFQSGAELIVGALGAGFIFEMVPRYLAAFSIGLRAVAISLSGILAAVIATKIALPKDIVFTPEVVETVYTSYFYMLAQVAAFMAILTLGLSKVIQKLIARGEALEAEEKVDTTMRSNIG	failed
MQDSLGIMIKKANNALARDSDHYAKSLGLTGMQISTINFIANNEQHHDLFQRDLELEFNIRKATCSSLVSKMEAADLLIRVPAKDDGRYKRLLLTPKARQLATKIERFFETSEQRMATILGVNTAETYEALRQIAVAFSTPTHAPENWYLEHHHHHH	not failed
MQDSRPHPHDWNVSTDEAKRIQRRLASEVTERALPDGGETVAGIDVSVRDDTAQAAVSVLRLPELDVVDEATHRCEVPFPYVPGLLSFREMPAVLPALERLHSTPDVFVTDSHGAAHPRRFGLACHLGVLLDAPAIGVAKSILVGAPQGELGPEKGSRVPLVDDGETVGTVLRTRTDVNPVYVSVGHRCTLDGAADLMLDCSPRYKIPEPTRQAHKLSRAEGLEHHHHHH	not failed
MQDTLPSRREIAPDSTRPPPTHDDVRAQLNRIITSPQFPHIGRSAAFLTYAVEETLAGRADRIKGYSIAVEVFKRSNGFTQDDPVVRIEAGRLRRVLERYYFTAGQHDPIRIDIPKGGYVPTFAWTSPSEDNSDAEDQSLPPEHASSLFPGLRRHIWTVVLGLIVIVGGASALAGLTSIRFSSIWPFATADITESDGPTLVIAPFANLGDGPQAELYTTGLTEELLTALPRFKEIKVFGRETSRSLPPEVETSRIRGELGARFLLAGGVRVSGSRVRVTARLLDTQTDEILWSQTYDDDIGVRDLFTIQSDVANKVATAVAQPYGIMAQADVSNPPPDDLGSYGCTLSFYAYRAELSIERHGEVRNCLESAVARYPSFATAWAMLSIIYLDEDRFRFNRKPISSTPIDRSFQAARRAVQLDPGNTRALQALMTTLFFSQRVSEALQIGERALATNPNDTELLAEFGTRLAMSGEWQRGAALLDRAIALNPAGGGYYRGTRALAAYMLHDDKTAVIEIRQADLQKFPLFHAVAAVIYVDAGMIDDARSEAARFNEMRPDFIPNIVAELKVRNFQPQDRARMIADLRTAGLLVRDEVQATMSLPIDDSKALQPR	failed
